Laboratory results as given in publication PMC8617249, “Pharmacokinetic and pharmacodynamic similarity between SAR341402 insulin aspart and Japan-approved NovoRapid in healthy Japanese subjects” (Scientific Reports, 2021).

Legend:
healthy Japanese males = assay: 10 h automated euglycemic clamp, glucose infusion rate (glucodynamics); format: in vivo, human; settings: single 0.3 U/kg s.c.; for GIR-AUC0-10 h, gMean (% CV) / GIRmax, gMean (% CV) / median GIR-tmax (time to reach GIRmax): healthy Japanese males, 10 h euglycemic clamp; for GIR-AUC0-10 h, gMean (% CV): body weight standardized GIR, N = 36 SAR-Asp, 38 NN-Asp-Jp; for GIR-AUC0-10 h, gMean (% CV) / GIRmax, gMean (% CV): geometric mean (%CV); for GIRmax, gMean (% CV): smoothed GIR (LOESS, 0.06), N = 36/38
Procedure: Each dosing visit included a 10 h automated euglycemic clamp procedure (STG-55, Artificial Endocrine Pancreas; Nikkiso Co, Ltd, Tokyo, Japan)[13]. The premise of performing the clamp procedure is that the blood glucose lowering effect of an administered insulin is antagonized by a variable infusion of glucose so that blood glucose is maintained (or clamped) at a target level[2],[14]. The metabolic profile of the investigated insulin is characterized by the glucose infusion rate (GIR) needed to keep blood glucose as close as possible at its predefined target level during the glucose clamp.
Following an overnight fast of at least 10 h, subjects were connected to the clamp device and their baseline blood glucose was determined (via glucose oxidase sensors that measure whole-blood glucose levels) before dosing of the study drug. For each subject, this was calculated as the mean of four glucose measurements at 30, 20, 10 and 1 min before administration of the study drugs. The clamp procedure was not performed in those subjects having a baseline glucose level less than 70 mg/dL ([…]). After dosing, onset of insulin action in each subject was when the blood glucose dropped below the target level of the clamp procedure, which was when it was 5 mg/dL (0.28 mmol/L) less than their fasting baseline value.
Blood glucose levels were measured in 1-min intervals, and using a predefined algorithm the clamp device automatically administered a variable infusion of 10% glucose in response to changes in glucose to maintain each subject at their target glucose level. The GIR, being the amount of external glucose needed to keep a subject’s blood glucose concentration at its target level, was continuously measured, and recorded by the STG-55 device. GIR profiles reflected the metabolic effects of SAR-Asp and NN-Asp-Jp over time.
The GIR over time was the primary pharmacodynamic parameter measured during the clamp procedure. The area under the body weight-standardized GIR time curve [GIR-AUC] measured insulin mediated glucose uptake into tissues. Subjects completing at least one clamp procedure with no major or critical deviations were included in the pharmacodynamic analysis dataset. Individual GIR values in each treatment group were standardized for body weight and subjected to a smoothing procedure using a locally weighted scatterplot smoothing (LOESS) function (SAS, PROC LOESS, factor 0.06). A smoothing factor of 6% was used based on the expected morphology of the GIR-profiles. Individual blood glucose levels were also subjected to a smoothing procedure. Fitted data were used to calculate the pharmacodynamic parameters, including the primary parameters of maximum smoothed body weight standardized GIR (GIRmax) and GIR-AUC over 10 h (GIR-AUC0–10 h), and the secondary parameter of time to reach GIRmax (GIR-tmax).
(§1) Log-transformed pharmacokinetic and pharmacodynamic parameter estimates for SAR-Asp and NN-Asp-Jp were analyzed using a linear mixed-effects model with period, sequence, and treatment as fixed effects and subject as a random effect. For each parameter, the model-based difference in treatment means along with the confidence limits (90% for pharmacokinetic parameters, 95% for pharmacodynamic parameters) was back-transformed to provide estimates for the ratio of geometric means (gMean) between treatments (SAR-Asp/NN-Asp-Jp) and the corresponding confidence limits. Similarity for the pharmacokinetic parameters (INS-AUCinf and INS-Cmax) and bioequipotency for the pharmacodynamic parameters (GIR-AUC0–10 h and GIRmax) was concluded if the confidence limits (90% and 95% confidence intervals [CIs], respectively) of the treatment ratios were entirely within the 0.80–1.25 equivalence interval, in agreement with regulatory guidance[2],[18]. Data was analyzed using SAS v9.4 (SAS Institute, Cary, NC).

[1] = Plasma insulin aspart pharmacokinetics after a single subcutaneous dose (LC-MS/MS, noncompartmental); format: in vivo, human; settings: single 0.3 U/kg s.c.; for INS-AUCinf, gMean (% CV) / INS-Cmax, gMean (% CV) / INS-AUClast, gMean (% CV): healthy Japanese males, fasting, plasma, LC-MS/MS, geometric mean (%CV); for INS-AUCinf, gMean (% CV): extrapolated to infinity; for INS-AUCinf, gMean (% CV) / INS-AUClast, gMean (% CV): N = 39/40; for INS-Cmax, gMean (% CV): N = 39 SAR-Asp, 40 NN-Asp-Jp; for INS-AUClast, gMean (% CV): time 0 to last quantifiable point
Text: Following a screening visit 3–28 days before the first period, subjects enrolled into the study were admitted to the study clinic on the day before dosing. On the day of treatment, they were randomized (computer-generated by sponsor) to one of the two treatment sequences (see Supplementary Fig. S1). Subjects received a single subcutaneous dose of 0.3 U/kg SAR-Asp or NN-Asp-Jp in the first treatment period in randomized order followed by the other drug in the second treatment period. A wash-out period of 7–18 days separated each treatment period, with an end-of-study visit performed 4–8 days after the last dose.
Venous blood samples for pharmacokinetic analysis were collected before dosing of study drug, and then every 15 to 60 min during the 10 h clamp period. Samples were centrifuged within 20 min of collection. Plasma was collected and kept frozen (− 60 to − 80 °C) until analysis. Plasma concentrations of SAR-Asp and NN-Asp-Jp were analyzed by using a validated liquid chromatography-tandem mass spectrometry (LC–MS/MS) assay at Syneos Health (Quebec, Canada). Plasma concentrations within the validated concentration range (100–8000 pg/mL) were used to calculated pharmacokinetic parameters. Inter-assay precision (% coefficient of variation [CV]) and inter-assay accuracy (%bias) during validation were ≤ 15%.
The pharmacokinetic analysis dataset included subjects who completed at least one treatment period, had measurable insulin aspart concentrations and no major or critical deviations. Parameter estimates for SAR-Asp and NN-Asp-Jp were calculated by using standard noncompartmental methods with Phoenix WinNonlin 8.1 (Certara, Princeton, NJ). Area under the plasma insulin aspart concentration–time curve was calculated by the trapezoidal method from 0 to the time of the last concentration above the limit of quantification (INS-AUClast) and extrapolated to infinity (INS-AUCinf). Maximum plasma insulin aspart concentration observed (INS-Cmax) and INS-AUClast were the primary pharmacokinetic endpoints of the study. INS-AUCinf was a secondary endpoint.
as §1

[2] = ratio of geometric means, linear mixed-effects model, 10 h clamp, equivalence range 0.80–1.25
[3] = ratio of geometric means, linear mixed-effects model, equivalence range 0.80–1.25

insulin aspart [NN-Asp-Jp]
GIR-AUC0-10 h, gMean (% CV) (healthy Japanese males): 2098.06 (23.5) mg/kg
GIRmax, gMean (% CV) (healthy Japanese males): 8.72 (21.0) mg/(kg·min)
median GIR-tmax (time to reach GIRmax) (healthy Japanese males): 2.35 h
INS-AUCinf, gMean (% CV) [1]: 15,200 (27) pg·h/mL
INS-Cmax, gMean (% CV) [1]: 6690 (31) pg/mL
INS-AUClast, gMean (% CV) [1]: 15,100 (27) pg·h/mL

insulin aspart [SAR-Asp]
GIR-AUC0-10 h, gMean (% CV) (healthy Japanese males): 2054.12 (22.2) mg/kg
GIRmax, gMean (% CV) (healthy Japanese males): 8.70 (20.9) mg/(kg·min)
median GIR-tmax (time to reach GIRmax) (healthy Japanese males): 2.82 h
GIR-AUC0-10 h mean ratio SAR-Asp/NN-Asp-Jp, point estimate (95% CI) (healthy Japanese males; [2]): 1.00
GIRmax mean ratio SAR-Asp/NN-Asp-Jp, point estimate (95% CI) (healthy Japanese males; [2]): 1.01
INS-AUCinf, gMean (% CV) [1]: 15,400 (26) pg·h/mL
INS-Cmax, gMean (% CV) [1]: 6690 (32) pg/mL
INS-AUClast, gMean (% CV) [1]: 15,300 (27) pg·h/mL
INS-AUCinf mean ratio SAR-Asp/NN-Asp-Jp, point estimate (90% CI) [1, 3]: 1.02
INS-AUClast mean ratio SAR-Asp/NN-Asp-Jp, point estimate (90% CI) [1, 3]: 1.02
INS-Cmax mean ratio SAR-Asp/NN-Asp-Jp, point estimate (90% CI) [1, 3]: 1.00
